Positions count from the first letter of the chain named. In names and notes the source's numbering stands.
T1: recombinant Factor VIII (CSL627, rVIII-SingleChain) (Homo sapiens (Human), UniProt P00451 20-2351)
T1 construct: also called FVIII
T1 sequence: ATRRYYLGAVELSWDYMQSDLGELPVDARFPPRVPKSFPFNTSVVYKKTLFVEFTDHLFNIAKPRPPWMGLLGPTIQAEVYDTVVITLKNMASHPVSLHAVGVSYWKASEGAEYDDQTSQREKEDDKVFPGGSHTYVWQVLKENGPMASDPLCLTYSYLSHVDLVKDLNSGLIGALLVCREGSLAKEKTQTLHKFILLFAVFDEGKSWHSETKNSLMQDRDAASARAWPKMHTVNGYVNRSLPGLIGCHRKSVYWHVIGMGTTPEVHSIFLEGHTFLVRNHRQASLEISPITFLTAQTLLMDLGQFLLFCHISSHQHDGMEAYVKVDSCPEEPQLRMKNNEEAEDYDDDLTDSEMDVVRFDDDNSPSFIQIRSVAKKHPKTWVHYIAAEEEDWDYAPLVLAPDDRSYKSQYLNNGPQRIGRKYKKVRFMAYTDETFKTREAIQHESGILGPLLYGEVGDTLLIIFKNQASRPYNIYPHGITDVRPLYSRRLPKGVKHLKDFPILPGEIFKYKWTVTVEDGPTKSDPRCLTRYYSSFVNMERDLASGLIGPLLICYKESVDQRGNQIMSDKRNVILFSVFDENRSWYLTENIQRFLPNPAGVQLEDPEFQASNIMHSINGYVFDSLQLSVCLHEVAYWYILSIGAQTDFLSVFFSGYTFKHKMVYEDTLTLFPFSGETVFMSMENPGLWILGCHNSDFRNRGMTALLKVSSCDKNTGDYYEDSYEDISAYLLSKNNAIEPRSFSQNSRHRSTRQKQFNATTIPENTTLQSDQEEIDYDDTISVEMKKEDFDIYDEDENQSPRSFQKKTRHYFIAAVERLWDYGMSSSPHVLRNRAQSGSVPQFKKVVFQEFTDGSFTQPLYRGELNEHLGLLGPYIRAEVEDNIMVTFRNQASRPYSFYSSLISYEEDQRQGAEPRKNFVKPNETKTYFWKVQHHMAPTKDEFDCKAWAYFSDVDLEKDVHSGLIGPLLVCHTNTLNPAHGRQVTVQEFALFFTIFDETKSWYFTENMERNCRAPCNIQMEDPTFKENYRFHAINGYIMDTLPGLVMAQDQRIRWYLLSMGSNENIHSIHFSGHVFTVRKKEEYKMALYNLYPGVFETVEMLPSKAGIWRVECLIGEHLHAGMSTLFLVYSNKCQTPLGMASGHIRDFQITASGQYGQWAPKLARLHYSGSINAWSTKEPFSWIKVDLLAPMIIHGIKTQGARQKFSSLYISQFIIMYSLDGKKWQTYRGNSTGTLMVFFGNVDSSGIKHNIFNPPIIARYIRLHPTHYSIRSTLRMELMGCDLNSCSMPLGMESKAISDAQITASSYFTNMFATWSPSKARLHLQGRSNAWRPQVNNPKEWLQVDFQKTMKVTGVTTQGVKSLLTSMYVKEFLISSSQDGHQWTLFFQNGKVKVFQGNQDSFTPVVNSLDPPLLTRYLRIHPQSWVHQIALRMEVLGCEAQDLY

B1: Hu-vWF[764-1270]-8His S764P-L765E-S766I (other)
chain: PEICRPPMVKLVCPADNLRAEGLECTKTCQNYDLECMSMGCVSGCLCPPGMVRHENRCVALERCPCFHQGKEYAPGETVKIGCNTCVCRDRKWNCTDHVCDATCSTIGMAHYLTFDGLKYLFPGECQYVLVQDYCGSNPGTFRILVGNKGCSHPSVKCKKRVTILVEGGEIELFDGEVNVKRPMKDETHFEVVESGRYIILLLGKALSVVWDRHLSISVVLKQTYQEKVCGLCGNFDGIQNNDLTSSNLQVEEDPVDFGNSWKVSSQCADTRKVPLDSSPATCHNNIMKQTMVDSSCRILTSDVFQDCNKLVDPEPYLDVCIYDTCSCESIGDCACFCDTIAAYAHVCAQHGKVVTWRTATLCPQSCEERNLRENGYECEWRYNSCAPACQVTCQHPEPLACPVQCVEGCHAHCPPGKILDELLQTCVDPEDCPVCEVAGRRFASGKKVTLNPSDPEHCQICHCDVVNLTCEACQEPGGLVVPPTDAPVSPTTLYVEDISEPPLHDFHHHHHHHH
B2: Hu-vWF[764-1270]-8His S766W-L809A (other)
chain: B1 chain with P1S, E2L, I3W, L46A
B3: Hu-vWF[764-1270]-8His S766W-L809I (other)
chain: B1 chain with P1S, E2L, I3W, L46I
B4: Hu-vWF[764-1270]-8His S766W-L809Y (other)
chain: B1 chain with P1S, E2L, I3W, L46Y
B5: Hu-vWF[764-1270]-8His S766W-L809F (other)
chain: B1 chain with P1S, E2L, I3W, L46F
B6: Hu-vWF[764-1270]-8His S764P-L765R-S766I (other)
chain: B1 chain with E2R
B7: Hu-vWF[764-1270]-8His S764P-L765W-S766I (other)
chain: B1 chain with E2W
B8: Hu-vWF[764-1270]-8His S766W-L809G (other)
chain: B1 chain with P1S, E2L, I3W, L46G
B9: Hu-vWF[764-1270]-8His S766W-L809R (other)
chain: B1 chain with P1S, E2L, I3W, L46R
B10: Hu-vWF[764-1270]-8His S766W-S806D (other)
chain: B1 chain with P1S, E2L, I3W, S43D
B11: Hu-vWF[764-1270]-8His S766W-L809S (other)
chain: B1 chain with P1S, E2L, I3W, L46S
B12: Hu-vWF[764-1270]-8His S766W-S806A (other)
chain: B1 chain with P1S, E2L, I3W, S43A
B13: Hu-vWF[764-1270]-8His S766W-L809Q (other)
chain: B1 chain with P1S, E2L, I3W, L46Q
B14: Hu-vWF[764-1270]-8His S764P-L765V-S766I (other)
chain: B1 chain with E2V
B15: Hu-vWF[764-1270]-8His S764P-L765T-S766I (other)
chain: B1 chain with E2T
B16: Hu-vWF[764-1270]-8His S766W-L809K (other)
chain: B1 chain with P1S, E2L, I3W, L46K
B17: Hu-vWF[764-1270]-8His S766W-L809M (other)
chain: B1 chain with P1S, E2L, I3W, L46M
B18: Hu-vWF[764-1270]-8His S764P-L765G-S766I (other)
chain: B1 chain with E2G
B19: Hu-vWF[764-1270]-8His S764P-L765K-S766I (other)
chain: B1 chain with E2K
B20: Hu-vWF[764-1270]-8His S766W-L809E (other)
chain: B1 chain with P1S, E2L, I3W, L46E
B21: Hu-vWF[764-1270]-8His S764P-L765Q-S766I (other)
chain: B1 chain with E2Q
B22: Hu-vWF[764-1270]-8His S766W-L809P (other)
chain: B1 chain with P1S, E2L, I3W, L46P
B23: Hu-vWF[764-1270]-8His S766W-L809H (other)
chain: B1 chain with P1S, E2L, I3W, L46H
B24: Hu-vWF[764-1270]-8His S764P-L765Y-S766I (other)
chain: B1 chain with E2Y
B25: Hu-vWF[764-1270]-8His S764P-L765I-S766I (other)
chain: B1 chain with E2I
B26: Hu-vWF[764-1270]-8His S766W-L809W (other)
chain: B1 chain with P1S, E2L, I3W, L46W
B27: Hu-vWF[764-1270]-8His S766W-L809V (other)
chain: B1 chain with P1S, E2L, I3W, L46V
B28: Hu-vWF[764-1270]-8His S764P-L765H-S766I (other)
chain: B1 chain with E2H
B29: Hu-vWF[764-1270]-8His S766W-S806E (other)
chain: B1 chain with P1S, E2L, I3W, S43E
B30: Hu-vWF[764-1270]-8His S766W-L809D (other)
chain: B1 chain with P1S, E2L, I3W, L46D
B31: Hu-vWF[764-1270]-8His S764P-L765M-S766I (other)
chain: B1 chain with E2M
B32: Hu-vWF[764-1270]-8His S766W-L809N (other)
chain: B1 chain with P1S, E2L, I3W, L46N
B33: Hu-vWF[764-1270]-8His S766W-L809T (other)
chain: B1 chain with P1S, E2L, I3W, L46T

Molecular target: T1, recombinant Factor VIII (CSL627, …)
Assay: SPR, anti-His capture, FVIII injected, 37 C
Description: Binding kinetics were investigated by surface plasmon resonance using a Biacore 4000 biosensor at 37° C. Each mutant was captured from cell culture medium to a density of 40-150 RU on a CM-5 sensor chip pre-immobilised with anti-His antibody (14,000 RU). In an initial screening study, FVIII was injected over the captured mutants for 5 minutes at 1 nM and dissociation monitored for 5 minutes.
All sensorgrams were double referenced by subtraction of signals from a reference spot (containing only immobilised anti His antibody) and from a blank injection. Binding kinetics were determined by fitting the double referenced sensorgrams to a 1:1 kinetic model.

Binder | Kd [pM] | koff [s⁻¹] | kon [M⁻¹ s⁻¹] | binding result
B1 | 53600 | 0.055 | 1.03e+06 | –
B2 | 258 | 0.00115 | 4.45e+06 | –
B3 | 103 | 0.000541 | 5.23e+06 | –
B4 | 500 | 0.00339 | 6.77e+06 | –
B5 | 228 | 0.000744 | 3.26e+06 | –
B6 | 218 | 0.0173 | 7.96e+07 | –
B7 | 132 | 0.000146 | 1.11e+06 | –
B8 | 363 | 0.00226 | 6.21e+06 | –
B9 | 352 | 0.00213 | 6.07e+06 | –
B10 | 164 | 0.000688 | 4.2e+06 | –
B11 | 220 | 0.00144 | 6.54e+06 | –
B12 | 77.8 | 0.000376 | 4.84e+06 | –
B13 | 212 | 0.00113 | 5.33e+06 | –
B14 | 2.07 | 0.000116 | 5.62e+07 | –
B15 | 28.7 | 0.00331 | 1.15e+08 | –
B16 | 219 | 0.00153 | 7e+06 | –
B17 | 117 | 0.000581 | 4.99e+06 | –

Binder | Kd [pM] | koff [s⁻¹] | kon [M⁻¹ s⁻¹] | binding result
B18 | 241 | 0.0122 | 5.04e+07 | –
B19 | 21.8 | 0.0015 | 6.88e+07 | –
B20 | 265 | 0.00155 | 5.84e+06 | –
B21 | 248 | 0.000286 | 1.15e+06 | –
B22 | – | – | – | no binding
B23 | 397 | 0.00114 | 2.87e+06 | –
B24 | 36.7 | 0.0019 | 5.17e+07 | –
B25 | 1620 | 0.0103 | 6.34e+06 | –
B26 | 648 | 0.00312 | 4.81e+06 | –
B27 | 122 | 0.00094 | 7.7e+06 | –
B28 | 42.4 | 6.6e-05 | 1.56e+06 | –
B29 | 217 | 0.00129 | 5.93e+06 | –
B30 | 425 | 0.0019 | 4.46e+06 | –
B31 | 2.41 | 0.000137 | 5.69e+07 | –
B32 | 369 | 0.00227 | 6.15e+06 | –
B33 | 161 | 0.00141 | 8.72e+06 | –
